Assay results reported in patent US20240343817A1 (STAIDSON BEIJING BIOPHARMACEUTICALS, published 2024).
Where a chain is given by its changes, count along the chain named. Values belong to the binder of their own block, whether it stands above or below them.

Tests used:
[1] = target: human CD40 extracellular domain (recombinant) (human) (UniProt P25942); assay: SPR, Biacore 8K; antibody on CM5 chip, hCD40 at various concentrations
human CD40 on cells [2] = target: T1, human CD40 on cells (human, UniProt P25942 21-277); assay: cell-based or functional assay
[3] = target: human CD40 extracellular domain (recombinant) (human) (UniProt P25942); assay: ELISA, plate coated with recombinant human CD40 extracellular domain, antibody in serial dilution, anti-human IgG-HRP, OD450
[4] = target: Rhesus monkey CD40 extracellular domain (recombinant) (Rhesus monkey) (UniProt F6SNI1); assay: ELISA, plate coated with recombinant rhesus monkey CD40 extracellular domain, antibody in serial dilution, anti-human IgG-HRP, OD450
[5] = target: human CD40 extracellular domain (recombinant) (human) (UniProt P25942); assay: ELISA; CD40 extracellular domain coated 0.1 µg/well, antibody titrated from 10 µg/mL 1:3, anti-human IgG-HRP
[6] = target: Rhesus monkey CD40 extracellular domain (recombinant) (Rhesus monkey) (UniProt F6SNI1); assay: as above
[7] = target: T2, human CD40 extracellular domain (recombinant) (human, UniProt P25942 21-193); assay: affinity assay not described (data not shown)
T2 construct: Extracellular domain expressed in 293F cells; also called hCD40; CD40-His; not shown: tag (His, Avi-His, mouse Fc or human Fc)

human TNFRSF11A = target: T3, human TNFRSF11A (human, UniProt Q9Y6Q6 30-212); assay: ELISA; protein coated, antibody titrated, anti-human IgG-HRP
T3 construct: Bought protein coated on the ELISA plate; also called TNFRSF11A (Sino biological, 16078-h08h)
T3 sequence (looked up): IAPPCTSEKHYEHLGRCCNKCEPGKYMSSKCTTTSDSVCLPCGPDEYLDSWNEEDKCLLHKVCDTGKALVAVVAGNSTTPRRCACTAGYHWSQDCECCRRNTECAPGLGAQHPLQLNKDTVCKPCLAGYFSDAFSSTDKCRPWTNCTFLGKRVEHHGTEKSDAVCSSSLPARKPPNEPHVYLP
Experimental: (§1) The cross-reactivities between anti-CD40 antibodies and the protein homologous with CD40 were detected. It was well known that there is high sequence homology among TNFR superfamily members. When compared with CD40 sequence. TNFRSF11A (38.95% homology) and INFR2 (37.20% homology) are with the highest homology. The cross-reactions between the two proteins and anti-CD40 antibody were detected by ELISA. respectively. Briefly, human TNFRSF11A (Sino biological, 16078-h08h), human TNFR2 (Sino biological, 10417-h08h) or the human CD40 extracellular domain protein prepared in example 1 was coated on ELISA plate and incubated at 4° C. overnight, respectively. After serial dilution, the optimized full-length anti-CD40 antibodies were added into 96 well plates and incubated respectively. After washing with TBST solution, the anti-human IgG-HRP antibody was added and incubated at RT. After washing with PBST, TMB was added into each well for development. Plates were read for the absorbance at 450 nm.

human TNFR2 = target: T4, human TNFR2 (human, UniProt P20333 23-257); assay: as above
T4 construct: Bought protein coated on the ELISA plate; also called TNFR2 (Sino biological, 10417-h08h); INFR2
T4 sequence (looked up): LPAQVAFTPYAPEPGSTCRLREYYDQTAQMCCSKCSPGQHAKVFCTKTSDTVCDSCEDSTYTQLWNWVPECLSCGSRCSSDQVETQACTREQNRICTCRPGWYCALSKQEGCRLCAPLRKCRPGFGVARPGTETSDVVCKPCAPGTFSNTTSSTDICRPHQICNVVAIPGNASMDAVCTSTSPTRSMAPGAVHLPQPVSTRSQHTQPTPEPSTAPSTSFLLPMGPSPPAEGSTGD
Experimental: as §1

human CD40 on cells [8] = target: T1, human CD40 on cells; assay: cell-based or functional assay; remark: listed apart in the source
[9] = target: T5, Rhesus monkey CD40 extracellular domain (recombinant) (Rhesus monkey, UniProt F6SNI1 21-193); assay: ELISA, plate coated with recombinant rhesus monkey CD40 extracellular domain, antibody (human IgG4 format) in serial dilution, anti-human IgG-HRP, OD450
T5 construct: extracellular domain; also called RheCD40
Experimental: (§2) ELISA Binding Assay: The selected monoclonal full-length antibodies D1, D2, D3, D5, D6, or D7 were subjected to binding assays with CD40 extracellular domain of different species, respectively. The assay was designed to identify full-length antibodies that cross-reacted with CD40 of different species. Briefly, the human or Rhesus monkey CD40 prepared in example 1 was dissolved in PBS and coated on […] with 0.1 μg/well followed by incubation at 4° C. overnight. The 96-well plates were washed with TBST before adding antibodies, blocked with 5% milk for 1-2 h at 37° C., and washed again with TBST. Firstly, each antibody sample was diluted to 10 μg/mL, and then serially diluted at a 1:3 ratio. 100 μL of serially diluted antibodies were added to each well and incubated for 1 h at 37° C. After washing with TBST for 6 times, 100 μL of the secondary antibody (goat anti-human IgG-HRP (Sigma. A8667)) was added to each well and incubated for 1 h at 37° C. After washing with TBST for 3 times, TMB was added with 100 μL/well and incubated for 10-20 minutes at 37° C. 2M H₂SO₄ was used to stop the reaction and plates were read for the absorbance at 450 nm. The ELISA results were then analyzed and the binding curves were generated by PRISM.
(§3) The biding affinity of the optimized full length CD40 antibodies with human or rhesus monkey CD40 was evaluated by Elisa according to the corresponding protocol as described in Example 2, and ASKP1240 was used as control.

[10] = target: T2, human CD40 extracellular domain …; assay: SPR, Biacore 8K; antibody on CM5 chip, hCD40 at various concentrations
Experimental: The binding affinity of the optimized anti-CD40 antibodies with human […] was characterized using Biacore 8K (GE). Anti-CD4 (antibodies were stabilized on sensor chip CM5 The affinities for hCD40 at various concentrations were measured. Using the SPR technology, the association and dissociation rates were measured, and binding affinity was determined.

[11] = target: T2, human CD40 extracellular domain …; assay: ELISA, plate coated with recombinant human CD40 extracellular domain, antibody (human IgG4 format) in serial dilution, anti-human IgG-HRP, OD450
Experimental: as §2, §3

T1 sequence (P25942 21-277 limits assumed): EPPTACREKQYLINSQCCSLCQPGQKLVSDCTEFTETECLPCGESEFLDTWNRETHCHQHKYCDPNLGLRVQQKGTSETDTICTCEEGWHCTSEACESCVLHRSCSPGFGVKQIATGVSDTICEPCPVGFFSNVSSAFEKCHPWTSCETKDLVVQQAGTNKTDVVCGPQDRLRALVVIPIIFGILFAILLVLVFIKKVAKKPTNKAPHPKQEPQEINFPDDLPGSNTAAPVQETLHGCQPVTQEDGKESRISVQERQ
human CD40 extracellular domain (recombinant) (human), sequence (P25942 21-193): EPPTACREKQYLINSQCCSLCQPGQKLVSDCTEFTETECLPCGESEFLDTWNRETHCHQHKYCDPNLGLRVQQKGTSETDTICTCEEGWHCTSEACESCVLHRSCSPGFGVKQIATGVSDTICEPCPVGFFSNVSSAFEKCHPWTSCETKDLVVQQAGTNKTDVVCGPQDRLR
T2 sequence (P25942 21-193): as above
Rhesus monkey CD40 extracellular domain (recombinant) (Rhesus monkey), sequence (F6SNI1 entry or part of it): as the sequence (P25942 21-193) above, with G43S, H56R, W89L, T92M, A95S, L101P, S106L, H142R, L172Q counted along it

- Kd [1]: 2.07 nM
- koff [1]: 0.000617 s⁻¹
- kon [1]: 298000 M⁻¹ s⁻¹
- IC50, HEK-Blue CD40L NF-κB activation assay (SEAP) (human CD40 on cells [2]): 0.0134 µg/mL
- IC50, HEK-Blue CD40L NF-κB activation assay (SEAP), Fc-3*G4S-CD40L stimulus (human CD40 on cells [2]): 0.0111 µg/mL
- EC50 (read off the curve) [3]: 0.1 µg/mL
- EC50 (read off the curve) [4]: 0.1 µg/mL
- EC50 [5]: 0.211 µg/mL
- EC50 [6]: 0.181 µg/mL
B1: ASKP1240 (antibody, INN chains, looked up, V domains shown)
VH: QLQLQESGPGLLKPSETLSLTCTVSGGSISSPGYYGGWIRQPPGKGLEWIGSIYKSGSTYHNPSLKSRVTISVDTSKNQFSLKLSSVTAADTAVYYCTRPVVRYFGWFDPWGQGTLVTVSS
VL: AIQLTQSPSSLSASVGDRVTITCRASQGISSALAWYQQKPGKAPKLLIYDASNLESGVPSRFSGSGSGTDFTLTISSLQPEDFATYYCQQFNSYPTFGQGTKVEIK
modifications: IgG4

- binding result [7]: binds
B2: D11 (antibody, IgG4, V domains shown)
VH: QVQLVQSGAEVKKPGASVKVSCKASVYSFTGYTVNWVRQAPGQRLEWMGLINPYNGGTTYNQKFKGRVTLTIDKSASTAYMELSSLRSEDTAVYYCASSYYSNPYAMDYWGQGTLVTVSS
VL: EIVMTQSPATLSVSPGERATLSCKASQNVHTAVAWYQQKPGQAPRLLIYLASDRRTGIPARFSGSGSGTEFTLTISSLQSEDFAVYYCLQHWNYPLTFGQGTKVEIK
notes: Humanized form of D1; recombined with human IgG constant regions (preferably IgG4 heavy chain and kappa light chain); also called humanized anti-CD40 antibody D11

- binding result (human TNFRSF11A): no binding (tested: 10 µg/mL)
- binding result (human TNFR2): no binding (tested: 10 µg/mL)
- IC50, HEK-Blue CD40L NF-κB activation assay (SEAP), antibody as human IgG4 (human CD40 on cells [8]): 0.0122 µg/mL
- EC50 (read off the curve) [9]: ~0.1 µg/mL
- Kd [10]: 1.63 nM
- koff [10]: 0.000494 s⁻¹
- kon [10]: 304000 M⁻¹ s⁻¹
- EC50 (read off the curve) [11]: ~0.2 µg/mL
B3: D33 (antibody, human IgG4, V domains shown)
VH: B2 VH with Y54L, N103T
VL: B2 VL with A32R
notes: also called optimized anti-CD40 antibody D33

- binding result (human TNFRSF11A): no binding (tested: 10 µg/mL)
- binding result (human TNFR2): no binding (tested: 10 µg/mL)
- IC50, HEK-Blue CD40L NF-κB activation assay (SEAP), antibody as human IgG4 (human CD40 on cells [8]): 0.00962 µg/mL
- EC50 (read off the curve) [9]: ~0.1 µg/mL
- Kd [10]: 1.26 nM
- koff [10]: 0.000277 s⁻¹
- kon [10]: 221000 M⁻¹ s⁻¹
- EC50 (read off the curve) [11]: ~0.2 µg/mL
B4: D42 (antibody, V domains shown)
VH: B2 VH with N52V, Y100R
VL: B2 VL with A32R
notes: also called optimized anti-CD40 antibody D42

- binding result (human TNFRSF11A): no binding (tested: 10 µg/mL)
- binding result (human TNFR2): no binding (tested: 10 µg/mL)
- IC50, HEK-Blue CD40L NF-κB activation assay (SEAP), antibody as human IgG4 (human CD40 on cells [8]): 0.0114 µg/mL
- EC50 (read off the curve) [9]: ~0.1 µg/mL
- Kd [10]: 1.59 nM
- koff [10]: 0.000303 s⁻¹
- kon [10]: 191000 M⁻¹ s⁻¹
- EC50 (read off the curve) [11]: ~0.2 µg/mL
B5: D47 (antibody, human IgG4, V domains shown)
VH: B2 VH with N55T, M107S
VL: B2 VL with A32R, N93T
notes: also called optimized anti-CD40 antibody D47
